B1: Segment polarity protein dishevelled homolog DVL-2 (Homo sapiens), O14641 (parent)
chain: MAGSSTGGGGVGETKVIYHLDEEETPYLVKIPVPAERITLGDFKSVLQRPAGAKYFFKSMDQDFGVVKEEISDDNARLPCFNGRVVSWLVSSDNPQPEMAPPVHEPRAELAPPAPPLPPLPPERTSGIGDSRPPSFHPNVSSSHENLEPETETESVVSLRRERPRRRDSSEHGAGGHRTGGPSRLERHLAGYESSSTLMTSELESTSLGDSDEEDTMSRFSSSTEQSSASRLLKRHRRRRKQRPPRLERTSSFSSVTDSTMSLNIITVTLNMEKYNFLGISIVGQSNERGDGGIYIGSIMKGGAVAADGRIEPGDMLLQVNDMNFENMSNDDAVRVLRDIVHKPGPIVLTVAKCWDPSPQAYFTLPRNEPIQPIDPAAWVSHSAALTGTFPAYPGSSSMSTITSGSSLPDGCEGRGLSVHTDMASVTKAMAAPESGLEVRDRMWLKITIPNAFLGSDVVDWLYHHVEGFPERREARKYASGLLKAGLIRHTVNKITFSEQCYYVFGDLSGGCESYLVNLSLNDNDGSSGASDQDTLAPLPGATPWPLLPTFSYQYPAPHPYSPQPPPYHELSSYTYGGGSASSQHSEGSRSSGSTRSDGGAGRTGRPEERAPESKSGSGSESEPSSRGGSLRRGGEASGTSDGGPPPSRGSTGGAPNLRAHPGLHPYGPPPGMALPYNPMMVVMMPPPPPPVPPAVQPPGAPPVRDLGSVPPELTASRQSFHMAMGNPSEFFVDVM

Variants of: B1
Settings: with axin1_human AXIN1, O15169
Chain of axin1_human AXIN1, O15169 (O15169 whole entry): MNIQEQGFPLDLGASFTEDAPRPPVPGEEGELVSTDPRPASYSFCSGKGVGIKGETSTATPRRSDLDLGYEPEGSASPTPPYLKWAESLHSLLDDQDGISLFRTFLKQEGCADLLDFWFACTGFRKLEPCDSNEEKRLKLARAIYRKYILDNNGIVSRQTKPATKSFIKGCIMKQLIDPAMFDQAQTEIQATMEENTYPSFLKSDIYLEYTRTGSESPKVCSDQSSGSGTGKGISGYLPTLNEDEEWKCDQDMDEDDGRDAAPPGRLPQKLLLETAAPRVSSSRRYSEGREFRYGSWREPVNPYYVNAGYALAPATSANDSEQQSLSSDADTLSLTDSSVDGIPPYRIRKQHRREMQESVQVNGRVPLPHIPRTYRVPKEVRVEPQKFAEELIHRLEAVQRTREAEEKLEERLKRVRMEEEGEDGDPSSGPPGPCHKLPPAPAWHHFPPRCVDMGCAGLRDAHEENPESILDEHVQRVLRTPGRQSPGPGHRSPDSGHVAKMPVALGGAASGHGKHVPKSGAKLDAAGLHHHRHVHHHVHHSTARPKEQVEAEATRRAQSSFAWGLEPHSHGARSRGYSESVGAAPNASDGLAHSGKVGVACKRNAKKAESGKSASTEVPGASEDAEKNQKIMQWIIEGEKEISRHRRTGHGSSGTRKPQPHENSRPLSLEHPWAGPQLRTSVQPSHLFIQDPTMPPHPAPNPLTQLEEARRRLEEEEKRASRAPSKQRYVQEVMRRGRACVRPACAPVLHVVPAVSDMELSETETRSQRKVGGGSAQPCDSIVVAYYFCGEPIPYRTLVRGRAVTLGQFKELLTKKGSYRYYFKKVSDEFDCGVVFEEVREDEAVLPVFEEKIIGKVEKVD

effect of a mutation on the interaction | Variant
disrupting interaction strength | Y27D

Reference: IntAct's records for PubMed 21245303
